Consider 4 substances from PMC5520048 (Nature Communications, 2017).

Series [1] addresses insulin detemir (Homo sapiens) (UniProt P01308). To be noted: cited from earlier work.
The conditions of series [2]: applied intravenously; cited from earlier work.
The test system of a further series is albumin. To be noted: cited from earlier work.
In the next series the target is T1, Human albumin (Homo sapiens, UniProt P02768).
T1 construct: purchased Sigma-Aldrich A1653
Nature of the series: Fluorescence polarization albumin binding assay, purified human albumin. The procedure:
Forty-five microlitre of the dilutions were added to 15 μl of fluorescent peptide (100 nM) in black 96-well half area microtitre plates. […] The final concentration of fluorescent peptide was 25 nM in all wells. Fluorescence anisotropy was measured with an Infinite M200Pro plate reader (Tecan) using an excitation filter at 485 nm and an emission filter at 535 nm. Dissociation constant (KD) were determined by nonlinear regression analysis of anisotropy versus the total concentration of proteins [P]T using the following equation: […]
A is the experimental fluorescence anisotropy. Af and Ab are the fluorescence anisotropy for the free and the fully bound fluorescent ligand, respectively. [L]T and [P]T represent the total fluorescent ligand and protein concentration, respectively. KD is the dissociation constant for the binding equilibrium. Values were calculated with Prism 5 (GraphPad software).
(In general: In fluorescence polarisation assays a small probe gives low polarisation when free and higher when bound to something large.)

Chain of insulin detemir (Homo sapiens) (F8WCM5 25-53, chain 1 of 2): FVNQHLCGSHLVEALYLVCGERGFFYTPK
Chain of insulin detemir (Homo sapiens) (P01308 90-110, chain 2 of 2): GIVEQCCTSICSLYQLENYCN

In general, Kd refers to the equilibrium constant for the complex coming apart. On to albumin (from UniProt P02768), for which the Kd in series [1] is 4.2 µM.
Broadly, the half-life is the time in which the quantity being followed falls by half. With oxytocin, the half-life in series [2] is 10 to 15 min.
Consider insulin degludec, for which the “higher affinity for albumin than insulin detemir” value in the series with albumin is 2.4 fold.
Regarding (F)-EYEKpalmEYE [tag], the “improvement of Kd compared to the starting peptide-palmitoyl tag” value at Human albumin was determined as 27 fold.
